Experimental data as given in patent publication US20210338656A1, “IMMUNOSTIMULATORY AGENTS IN COMBINATION WITH ANGIOGENESIS INHIBITORS” (Alkermes Pharma Ireland Limited, priority 2020, published 2021).

B1: SEQ ID NO: 2: mouse ortholog construct (murine surrogate) of the circularly permuted IL-2/IL-2Rα fusion protein of SEQ ID NO: 1 (protein)
chain: SKSFQLEDAENFISNIRVTVVKLKGSDNTFECQFDDESATVVDFLRRWIAFCQSIISTSPQGGSSSTQQQQQHLEQLLMDLQELLSRMENYRNLKLPRMLTFKFYLPKQATELKDLQCLEDELGPLRHVLDLTQGSGGGSELCLYDPPEVPNATFKALSYKNGTILNCECKRGFRRLKELVYMRCLGNSWSSNCQCTSNSHDKSRKQVTAQLEHQKEQQTTTDMQKPTQSMHQENLTGHCREPPPWKHEDSKRIYHFVEGQSVHYECIPGYKALQRGPAISICKMKCGKTGWTQPQLTCVDGSHHHHHH
modifications: Mouse cpIL-2IL-2R-alpha

Experiments:
[1] = system: conventional CD4+ T cells, CD4+ Tregs, CD8+ T cells, macrophages, dendritic cells in tumors and spleens; assay: Flow cytometry of tumors and spleens of MC38 tumor-bearing mice, Day 10; assay type: in vivo, mouse
Description: On Day 10 spleens and tumors were collected and weighed from all animals in Groups 7 through 12 and weighed prior to processing. Tissues from four animals in each group were processed to single cell suspensions for flow cytometry analysis at CRL-NC (described below). Tissues from the remaining six animals in each group were preserved in RNAlater, stored at −80° C.
Mouse spleen samples were dissociated by gently grinding the tissue across fine mesh with RPMI-1640 media and lysing red blood cells with ACK (ammonium chloride potassium) buffer according to the manufacturer's instructions. Samples were centrifuged and washed twice with PBS.
Mouse tumor samples were dissociated according to the manufacturer's instructions using the gentleMACS™ “Tumor Dissociation Kit” protocol. Tumor samples were filtered through a 70 μm cell strainer and rinsed twice in PBS/2.5% FBS buffer to remove enzymatic buffer. Total tumor sample and plated well volumes were measured and recorded.
Total tissue volumes and Cellometer counts from each sample were recorded. Final single cell suspensions were prepared in PBS pH 7.4 at 2×10^7 cells/mL and held briefly on ice prior to flow cytometry analysis, including conventional CD4^+ T cells, CD4^+ Tregs, CD8^+ T cells, macrophages, and dendritic cells (as % CD45^+ and as cells/mg tissue).
Single cell suspensions were added into 96-well plates and stained for 30 minutes at 4° C. with 100 μL of the reconstituted Live/Dead Aqua (Life Technologies) following manufacturer's instructions. After two washes with 150 μL of Staining Buffer, Fc receptors were blocked using TruStain Fc (Biolegend) in 100 μL volume for five to ten minutes on ice prior to immunostaining. Cells were stained for 30 minutes at 37° C. with antibody panels as described in the protocol. Cells were washed twice with 150 μL of Staining Buffer and resuspended in […] Staining Buffer for analysis. For staining of internal markers such as FoxP3, cells were permeabilized with 200 μL of Transcription Factor Fixation/Permeabilization buffer (eBioscience) for 15 minutes at 4° C. according to manufacturer's instructions. After two washes with 150 μL of Permeabilization Buffer (eBioscience), internal marker staining was carried out using 0.1 μg of each antibody diluted in 100 μL of Permeabilization Buffer for 30 minutes at 4° C. protected from the light. Cells were washed twice with 150 μL of Permeabilization Buffer and resuspended in 100 μL of Staining Buffer. 100 μL of Staining Buffer containing Countbright beads were added to each sample. Isotype-control antibodies were used as negative staining controls when deemed necessary.
All data were collected on a FortessaLSR (BD) and analyzed with FlowJo software (version 10.0.7r2, Tree Star, Inc.). Cell populations were defined as described in the protocol, and the gating strategy was determined by initial gating on singlets (FSC-H vs. FSCA) and then live cells, based on Live/Dead Aqua viability staining.

[2] = system: MC38 murine colon carcinoma cells; assay: Anti-tumor efficacy in subcutaneous MC38 syngeneic tumor model (tumor growth, survival); assay type: in vivo, mouse; settings: for tumor growth inhibition (TGI): Day 11; for tumor growth outcome (summary in words): treatment arm summaries
Description: The characteristics of each animal study group, the administration of the test articles and timing, the collection of samples and the overall study design are as shown in Tables 1 and 2:
(68-72° F.) and 40-60% humidity.
Additional aliquots were stored at 4° C. for use within 72 hours of formulation. Just prior to administration, dosing solutions were remixed with gentle inversion.
Group mean tumor volumes were plotted versus time. When an animal exited the study because of tumor size or TR death, its final recorded tumor volume was included with the data used to calculate the mean volume. Mean tumor volumes were calculated for a group until 50% of the animals had exited the study. Kaplan-Meier plots show the percentage of animals in each group remaining in the study versus time.

Molecule | macrophages in spleens and tumors [1] | conventional CD4+ T cells in spleen ([1]; compared to vehicle) | tumor growth inhibition (TGI) ([2]; lucitanib monotherapy 10 mg/kg p.o. daily) [%] | median survival time ([2]; lucitanib monotherapy 10 mg/kg p.o. daily for 28 days, vehicle 15 days) [days] | tumor growth outcome (summary in words) [2] | CD4+ Tregs in spleens [1] | CD8+ T cells in spleens and tumors [1] | Foxp3+ regulatory T cells (Tregs) [1] | dendritic cells in spleens and tumors [1] | numbers of conventional CD4+ T cells in tumors ([1]; compared to vehicle) | peripheral CD8+ T cell expansion ([1]; compared to vehicle) | tumor growth inhibition (TGI) ([2]; SEQ ID NO: 2 monotherapy 1.5 mg/kg s.c. once every 3 days) [%] | tumor growth inhibition (TGI) ([2]; SEQ ID NO: 2 monotherapy 3 mg/kg s.c. once every 3 days) [%] | median survival time ([2]; SEQ ID NO: 2 monotherapy 1.5 mg/kg s.c.) [days] | median survival time ([2]; SEQ ID NO: 2 monotherapy 3 mg/kg s.c.) [days] | complete response (number) ([2]; SEQ ID NO: 2 monotherapy arms) | durable complete tumor regressions ([2]; either dose (1.5 or 3 mg/kg) of SEQ ID NO: 2 monotherapy, groups pooled)
CNC(=O)c1cccc2cc(Oc3ccnc4cc(OCC5(N)CC5)c(OC)cc34)ccc12 [Lucitanib, 6-(7-((1-Aminocyclopropyl)-methoxy)-6-methoxyquinolin-4-yloxy)-N-methyl-1-naphthamide] | decrease | increase | 100 | 39 | transient inhibition of tumor growth |  |  |  |  |  |  |  |  |  |  |  | 
B1 | decrease | decreased |  |  | modest tumor growth inhibition | decrease | increase | without an increase | increase | neither treatment with SEQ ID NO: 2 nor the combination with lucitanib changed the numbers | significant peripheral CD8^+ T cell expansion | 25 | 51 | 18 | 22 | 1 | 1/20
